Columns and labels:
HLA-B*15:01 = test: IEDB peptide-MHC binding, purified MHC/competitive/fluorescence; filed as Kd, often an IC50 or EC50 that approximates it; ≥ and ≤ were set here for values at or beyond the usual limits of such assays; details: source organism: Yersinia pestis Antiqua
HLA-A*03:01 = test: as above
HLA-B*51:01 = test: IEDB peptide-MHC binding, purified MHC/competitive/radioactivity; filed as Kd, often an IC50 or EC50 that approximates it; ≥ and ≤ were set here for values at or beyond the usual limits of such assays
HLA-B*53:01 = test: as above
HLA-B*35:01 = test: as above
HLA-B*07:02 = test: as above
HLA-B*54:01 = test: as above
HLA-A*24:02 [1] = test: IEDB peptide-MHC binding, purified MHC/competitive/fluorescence; ≥ and ≤ were set here for values at or beyond the usual limits of such assays; details: source organism: Sudan ebolavirus
HLA-A*11:01 = test: as above
HLA-A*02:01 = test: as above
HLA-A*69:01 = test: IEDB peptide-MHC binding, purified MHC/direct/fluorescence; filed as Kd, often an IC50 or EC50 that approximates it; ≥ and ≤ were set here for values at or beyond the usual limits of such assays; details: source organism: Mycobacterium tuberculosis
HLA-A*02:12 = test: as above; details: source organism: Mycobacterium tuberculosis str. Haarlem
HLA-A*02:11 = test: as above
HLA-A*02:03 = test: as above; details: source organism: Mycobacterium tuberculosis str. Haarlem
HLA-A*23:01 = test: IEDB peptide-MHC binding, purified MHC/competitive/radioactivity; filed as Kd, often an IC50 or EC50 that approximates it; ≥ and ≤ were set here for values at or beyond the usual limits of such assays; details: source organism: SARS coronavirus Tor2
HLA-A*24:02 [2] = test: as above; details: source organism: SARS coronavirus Tor2
HLA-A*30:02 = test: as above; details: source organism: SARS coronavirus Tor2
HLA-A*29:02 = test: as above; details: source organism: SARS coronavirus Tor2
HLA-A*26:01 = test: as above; details: source organism: SARS coronavirus Tor2
HLA-A*01:01 = test: IEDB peptide-MHC binding, purified MHC/direct/fluorescence; filed as Kd, often an IC50 or EC50 that approximates it; ≥ and ≤ were set here for values at or beyond the usual limits of such assays; details: source organism: SARS-CoV1
[3] = source organism: SARS coronavirus Tor2
[4] = source organism: Vaccinia virus WR
[5] = source organism: Sudan ebolavirus
[6] = source organism: Mammarenavirus lassaense
[7] = source organism: Triticum aestivum
[8] = source organism: Zaire ebolavirus
[9] = source organism: Mammarenavirus whitewaterense

## AMLDRILHH
HLA-B*15:01
  Kd: 6.16 µM
HLA-A*03:01; source organism: Yersinia pestis Antiqua
  Kd: 9.5 nM

## APAICHEGKA
HLA-B*51:01; [3]
  Kd: ≥ 43000 nM
HLA-B*53:01; [3]
  Kd: 17300 nM
HLA-B*35:01; [3]
  Kd: ≥ 53500 nM
HLA-B*07:02; [3]
  Kd: 2010 nM
HLA-B*54:01; [3]
  Kd: 1.47 µM

## CLRIPMTDK
HLA-A*03:01; source organism: Bacillus thuringiensis str. Al Hakam
  Kd: 52.9 nM

## DPDHYKDYA
HLA-B*51:01; [4]
  Kd: ≥ 22500 nM
HLA-B*53:01; [4]
  Kd: ≥ 75500 nM
HLA-B*35:01; [4]
  Kd: ≥ 77400 nM
HLA-B*07:02; [4]
  Kd: 14800 nM
HLA-B*54:01; [4]
  Kd: 7.01 µM

## DPGNPNCLEW
HLA-B*51:01; [4]
  Kd: ≥ 69600 nM
HLA-B*53:01; [4]
  Kd: 6.64 nM
HLA-B*35:01; [4]
  Kd: ≥ 56500 nM
HLA-B*07:02; [4]
  Kd: ≥ 69600 nM
HLA-B*54:01; [4]
  Kd: ≥ 69.9 µM

## EPSGNNYHIL
HLA-B*51:01; [4]
  Kd: ≥ 69600 nM
HLA-B*53:01; [4]
  Kd: 2960 nM
HLA-B*35:01; [4]
  Kd: 8080 nM
HLA-B*07:02; [4]
  Kd: 1670 nM
HLA-B*54:01; [4]
  Kd: 15.5 µM

## EWAFWENKK
HLA-A*24:02 [1]
  IC50: 15.3 µM
HLA-A*11:01; [5]
  IC50: 10.8 µM
HLA-A*02:01; [5]
  IC50: ≥ 183 µM

## FPAQPGLTSA
HLA-B*51:01; [6]
  Kd: ≥ 32300 nM
HLA-B*53:01; [6]
  Kd: 2910 nM
HLA-B*35:01; [6]
  Kd: 51 nM
HLA-B*07:02; [6]
  Kd: 49.6 nM
HLA-B*54:01; [6]
  Kd: 0.00639 µM

## FPSQQPYL
HLA-B*51:01; [7]
  Kd: 3.53 nM
HLA-B*53:01; [7]
  Kd: 323 nM
HLA-B*35:01; [7]
  Kd: 735 nM
HLA-B*07:02; [7]
  Kd: 1030 nM
HLA-B*54:01; [7]
  Kd: 4.33 µM

## GEWAFWETK
HLA-A*11:01; [8]
  IC50: 58 µM

## HGEYAPFAR
HLA-A*11:01; [8]
  IC50: 61.7 µM

## IPTNFSISI
HLA-B*51:01; [3]
  Kd: 57.1 nM
HLA-B*53:01; [3]
  Kd: 10.7 nM
HLA-B*35:01; [3]
  Kd: 31.2 nM
HLA-B*07:02; [3]
  Kd: 64.1 nM
HLA-B*54:01; [3]
  Kd: 0.0499 µM

## IPYSRVNHA
HLA-B*51:01; [4]
  Kd: 23.2 nM
HLA-B*53:01; [4]
  Kd: 177 nM
HLA-B*35:01; [4]
  Kd: 57.2 nM
HLA-B*07:02; [4]
  Kd: 6.63 nM
HLA-B*54:01; [4]
  Kd: 0.000133 µM

## KPFNNILNLI
HLA-B*51:01; [4]
  Kd: ≥ 10000 nM
HLA-B*53:01; [4]
  Kd: ≥ 69900 nM
HLA-B*35:01; [4]
  Kd: ≥ 69900 nM
HLA-B*07:02; [4]
  Kd: 1140 nM
HLA-B*54:01; [4]
  Kd: ≥ 69.9 µM

## LLYDGSFAV
HLA-A*69:01
  Kd: 4.3 nM
HLA-A*02:12
  Kd: 2 nM
HLA-A*02:11; source organism: Mycobacterium tuberculosis str. Haarlem
  Kd: ≤ 0.001 µM
HLA-A*02:03
  Kd: ≤ 1 nM

## LPMIIGEPII
HLA-B*51:01; [4]
  Kd: 456 nM
HLA-B*53:01; [4]
  Kd: 33.3 nM
HLA-B*35:01; [4]
  Kd: 750 nM
HLA-B*07:02; [4]
  Kd: 9.12 nM
HLA-B*54:01; [4]
  Kd: 0.0311 µM

## LPPFTQHLL
HLA-B*51:01; [4]
  Kd: 18.6 nM
HLA-B*53:01; [4]
  Kd: 91.3 nM
HLA-B*35:01; [4]
  Kd: 240 nM
HLA-B*07:02; [4]
  Kd: 401 nM
HLA-B*54:01; [4]
  Kd: 3.03 µM

## NPTNISKCF
HLA-B*51:01; [9]
  Kd: 5740 nM
HLA-B*53:01; [9]
  Kd: 77.7 nM
HLA-B*35:01; [9]
  Kd: 199 nM
HLA-B*07:02; [9]
  Kd: 8660 nM
HLA-B*54:01; [9]
  Kd: 3.47 µM

## PPLISILMIF
HLA-B*51:01; [4]
  Kd: 2020 nM
HLA-B*53:01; [4]
  Kd: 497 nM
HLA-B*35:01; [4]
  Kd: 761 nM
HLA-B*07:02; [4]
  Kd: 270 nM
HLA-B*54:01; [4]
  Kd: 3.12 µM

## PVDEYITTY
HLA-A*23:01
  Kd: ≥ 77.8 µM
HLA-A*24:02 [2]
  Kd: ≥ 77.6 µM
HLA-A*30:02
  Kd: 1480 nM
HLA-A*29:02
  Kd: 544 nM
HLA-A*26:01
  Kd: 10.8 µM
HLA-A*02:11; source organism: SARS-CoV1
  Kd: ≥ 20 µM
HLA-A*01:01
  Kd: 44 nM

## RCYPGYTLK
HLA-A*03:01; source organism: Giardia lamblia ATCC 50803
  Kd: 62.3 nM

## SPLPSLEYGA
HLA-B*51:01; [4]
  Kd: ≥ 69600 nM
HLA-B*53:01; [4]
  Kd: 12400 nM
HLA-B*35:01; [4]
  Kd: 6000 nM
HLA-B*07:02; [4]
  Kd: 1640 nM
HLA-B*54:01; [4]
  Kd: 0.000204 µM

## SPTEMVDVSM
HLA-B*51:01; [4]
  Kd: ≥ 69600 nM
HLA-B*53:01; [4]
  Kd: 1940 nM
HLA-B*35:01; [4]
  Kd: 37.2 nM
HLA-B*07:02; [4]
  Kd: 122 nM
HLA-B*54:01; [4]
  Kd: ≥ 42.7 µM

## TPLHKYCVNL
HLA-B*51:01; [4]
  Kd: ≥ 37100 nM
HLA-B*53:01; [4]
  Kd: 891 nM
HLA-B*35:01; [4]
  Kd: 7360 nM
HLA-B*07:02; [4]
  Kd: 11.3 nM
HLA-B*54:01; [4]
  Kd: 4.86 µM

## TPVYKLDIS
HLA-A*11:01; [8]
  IC50: 65.8 µM
HLA-A*02:01; [8]
  IC50: ≥ 170 µM

## VLRRGALAH
HLA-A*03:01; source organism: Vibrio cholerae 2740-80
  Kd: 14 nM

## VLTGGTGVG
HLA-A*11:01; source organism: Variola virus
  IC50: ≥ 80.6 µM

## VVAFLILPQ
HLA-A*11:01; [8]
  IC50: ≥ 1240 µM
HLA-A*02:01; [8]
  IC50: ≥ 1420 µM

## YMFESKRMK
HLA-A*03:01; source organism: Influenza A virus (A/swine/Finistere/127/99(H3N2))
  Kd: 19.4 nM

## YPNSSDLDM
HLA-B*51:01; [6]
  Kd: 780 nM
HLA-B*53:01; [6]
  Kd: 14.1 nM
HLA-B*35:01; [6]
  Kd: 8.23 nM
HLA-B*07:02; [6]
  Kd: 233 nM
HLA-B*54:01; [6]
  Kd: ≥ 53.9 µM
